This note sets out measurements from IntAct's records for PubMed 31515488.

First the molecules themselves.
B1: X-linked retinitis pigmentosa GTPase regulator (Homo sapiens), Q92834 (parent)
chain: MREPEELMPDSGAVFTFGKSKFAENNPGKFWFKNDVPVHLSCGDEHSAVVTGNNKLYMFGSNNWGQLGLGSKSAISKPTCVKALKPEKVKLAACGRNHTLVSTEGGNVYATGGNNEGQLGLGDTEERNTFHVISFFTSEHKIKQLSAGSNTSAALTEDGRLFMWGDNSEGQIGLKNVSNVCVPQQVTIGKPVSWISCGYYHSAFVTTDGELYVFGEPENGKLGLPNQLLGNHRTPQLVSEIPEKVIQVACGGEHTVVLTENAVYTFGLGQFGQLGLGTFLFETSEPKVIENIRDQTISYISCGENHTALITDIGLMYTFGDGRHGKLGLGLENFTNHFIPTLCSNFLRFIVKLVACGGCHMVVFAAPHRGVAKEIEFDEINDTCLSVATFLPYSSLTSGNVLQRTLSARMRRRERERSPDSFSMRRTLPPIEGTLGLSACFLPNSVFPRCSERNLQESVLSEQDLMQPEEPDYLLDEMTKEAEIDNSSTVESLGETTDILNMTHIMSLNSNEKSLKLSPVQKQKKQQTIGELTQDTALTENDDSDEYEEMSEMKEGKACKQHVSQGIFMTQPATTIEAFSDEEVGNDTGQVGPQADTDGEGLQKEVYRHENNNGVDQLDAKEIEKESDGGHSQKESEAEEIDSEKETKLAEIAGMKDLREREKSTKKMSPFFGNLPDRGMNTESEENKDFVKKRESCKQDVIFDSERESVEKPDSYMEGASESQQGIADGFQQPEAIEFSSGEKEDDEVETDQNIRYGRKLIEQGNEKETKPIISKSMAKYDFKCDRLSEIPEEKEGAEDSKGNGIEEQEVEANEENVKVHGGRKEKTEILSDDLTDKAEDHEFSKTEELKLEDVDEEINAENVESKKKTVGDDESVPTGYHSKTEGAERTNDDSSAETIEKKEKANLEERAICEYNENPKGYMLDDADSSSLEILENSETTPSKDMKKTKKIFLFKRVPSINQKIVKNNNEPLPEIKSIGDQIILKSDNKDADQNHMSQNHQNIPPTNTERRSKSCTIL
partner: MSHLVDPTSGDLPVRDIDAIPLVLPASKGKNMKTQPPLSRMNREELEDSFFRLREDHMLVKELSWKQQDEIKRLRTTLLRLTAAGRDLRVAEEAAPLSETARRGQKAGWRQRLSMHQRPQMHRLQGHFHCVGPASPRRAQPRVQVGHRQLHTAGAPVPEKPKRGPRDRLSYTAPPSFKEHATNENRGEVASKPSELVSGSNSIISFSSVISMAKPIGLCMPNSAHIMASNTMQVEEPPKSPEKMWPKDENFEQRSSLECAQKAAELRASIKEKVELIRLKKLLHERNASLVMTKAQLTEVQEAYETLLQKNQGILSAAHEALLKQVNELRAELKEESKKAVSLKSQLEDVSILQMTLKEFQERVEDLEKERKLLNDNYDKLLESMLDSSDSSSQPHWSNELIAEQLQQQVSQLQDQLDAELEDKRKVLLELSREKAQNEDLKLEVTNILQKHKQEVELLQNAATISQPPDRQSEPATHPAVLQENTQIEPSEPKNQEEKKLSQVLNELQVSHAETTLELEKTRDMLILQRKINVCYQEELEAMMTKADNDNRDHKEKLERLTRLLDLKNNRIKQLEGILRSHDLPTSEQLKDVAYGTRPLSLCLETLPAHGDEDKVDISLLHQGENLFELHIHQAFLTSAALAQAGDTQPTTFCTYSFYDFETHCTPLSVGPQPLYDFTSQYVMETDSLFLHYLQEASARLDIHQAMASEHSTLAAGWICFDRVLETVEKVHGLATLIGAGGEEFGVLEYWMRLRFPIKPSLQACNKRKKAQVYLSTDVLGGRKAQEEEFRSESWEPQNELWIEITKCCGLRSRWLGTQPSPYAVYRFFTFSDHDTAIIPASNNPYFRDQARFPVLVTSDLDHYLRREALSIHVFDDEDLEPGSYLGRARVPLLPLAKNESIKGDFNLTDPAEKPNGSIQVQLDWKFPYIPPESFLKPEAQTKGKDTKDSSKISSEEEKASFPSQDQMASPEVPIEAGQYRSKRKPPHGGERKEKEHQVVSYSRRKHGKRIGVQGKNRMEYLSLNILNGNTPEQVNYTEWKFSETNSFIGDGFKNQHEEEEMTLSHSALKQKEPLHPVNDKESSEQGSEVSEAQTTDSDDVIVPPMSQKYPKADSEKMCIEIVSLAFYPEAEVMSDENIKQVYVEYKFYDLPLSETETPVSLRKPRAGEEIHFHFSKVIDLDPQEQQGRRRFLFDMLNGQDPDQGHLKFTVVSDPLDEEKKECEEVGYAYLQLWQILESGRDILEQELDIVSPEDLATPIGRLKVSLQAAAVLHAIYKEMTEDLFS
B2: E3 ubiquitin-protein ligase CHIP (Homo sapiens), Q9UNE7 (parent)
chain: MKGKEEKEGGARLGAGGGSPEKSPSAQELKEQGNRLFVGRKYPEAAACYGRAITRNPLVAVYYTNRALCYLKMQQHEQALADCRRALELDGQSVKAHFFLGQCQLEMESYDEAIANLQRAYSLAKEQRLNFGDDIPSALRIAKKKRWNSIEERRIHQESELHSYLSRLIAAERERELEECQRNHEGDEDDSHVRAQQACIEAKHDKYMADMDELFSQVDEKRKKRDIPDYLCGKISFELMREPCITPSGITYDRKDIEEHLQRVGHFDPVTRSPLTQEQLIPNLAMKEVIDAFISENGWVEDY
B3: E3 ubiquitin-protein ligase RNF185 (Homo sapiens), Q96GF1 (parent)
chain: MASKGPSASASPENSSAGGPSGSSNGAGESGGQDSTFECNICLDTAKDAVISLCGHLFCWPCLHQWLETRPNRQVCPVCKAGISRDKVIPLYGRGSTGQQDPREKTPPRPQGQRPEPENRGGFQGFGFGDGGFQMSFGIGAFPFGIFATAFNINDGRPPPAVPGTPQYVDEQFLSRLFLFVALVIMFWLLIA
B4: 2'-5'-oligoadenylate synthase 1 (Homo sapiens), P00973 (parent)
chain: MMDLRNTPAKSLDKFIEDYLLPDTCFRMQINHAIDIICGFLKERCFRGSSYPVCVSKVVKGGSSGKGTTLRGRSDADLVVFLSPLTTFQDQLNRRGEFIQEIRRQLEACQRERAFSVKFEVQAPRWGNPRALSFVLSSLQLGEGVEFDVLPAFDALGQLTGGYKPNPQIYVKLIEECTDLQKEGEFSTCFTELQRDFLKQRPTKLKSLIRLVKHWYQNCKKKLGKLPPQYALELLTVYAWERGSMKTHFNTAQGFRTVLELVINYQQLCIYWTKYYDFKNPIIEKYLRRQLTKPRPVILDPADPTGNLGGGDPKGWRQLAQEAEAWLNYPCFKNWDGSPVSSWILLAESNSADDETDDPRRYQKYGYIGTHEYPHFSHRPSTLQAASTPQAEEDWTCTIL
B5: Protein sprouty homolog 1 (Homo sapiens), O43609 (parent)
chain: MDPQNQHGSGSSLVVIQQPSLDSRQRLDYEREIQPTAILSLDQIKAIRGSNEYTEGPSVVKRPAPRTAPRQEKHERTHEIIPINVNNNYEHRHTSHLGHAVLPSNARGPILSRSTSTGSAASSGSNSSASSEQGLLGRSPPTRPVPGHRSERAIRTQPKQLIVDDLKGSLKEDLTQHKFICEQCGKCKCGECTAPRTLPSCLACNRQCLCSAESMVEYGTCMCLVKGIFYHCSNDDEGDSYSDNPCSCSQSHCCSRYLCMGAMSLFLPCLLCYPPAKGCLKLCRRCYDWIHRPGCRCKNSNTVYCKLESCPSRGQGKPS
partner: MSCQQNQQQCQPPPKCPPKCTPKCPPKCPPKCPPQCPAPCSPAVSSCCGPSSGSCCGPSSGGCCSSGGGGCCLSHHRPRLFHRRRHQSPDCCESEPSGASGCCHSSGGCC

One assay covers variants of B1. Conditions: with rpgr1_human RPGRIP1, Q96KN7.
Consider R425K, for which the “effect of a mutation on the interaction” value is “with no effect”.
Consider Q456R, for which the “effect of a mutation on the interaction” value is “with no effect”.
Consider I431V, for which the “effect of a mutation on the interaction” value is reported as “with no effect”.
Same read-out and setting: as for Q184H, the entry is “with no effect”; as for C302S, “with no effect”.
Regarding I75V, the “effect of a mutation on the interaction” value is given as “with no effect”.

Variants of B2 are the subject of the next assay. As to conditions: with noe3_human OLFM3, Q96PB7.
Sequence of noe3_human OLFM3, Q96PB7 (Q96PB7 whole entry): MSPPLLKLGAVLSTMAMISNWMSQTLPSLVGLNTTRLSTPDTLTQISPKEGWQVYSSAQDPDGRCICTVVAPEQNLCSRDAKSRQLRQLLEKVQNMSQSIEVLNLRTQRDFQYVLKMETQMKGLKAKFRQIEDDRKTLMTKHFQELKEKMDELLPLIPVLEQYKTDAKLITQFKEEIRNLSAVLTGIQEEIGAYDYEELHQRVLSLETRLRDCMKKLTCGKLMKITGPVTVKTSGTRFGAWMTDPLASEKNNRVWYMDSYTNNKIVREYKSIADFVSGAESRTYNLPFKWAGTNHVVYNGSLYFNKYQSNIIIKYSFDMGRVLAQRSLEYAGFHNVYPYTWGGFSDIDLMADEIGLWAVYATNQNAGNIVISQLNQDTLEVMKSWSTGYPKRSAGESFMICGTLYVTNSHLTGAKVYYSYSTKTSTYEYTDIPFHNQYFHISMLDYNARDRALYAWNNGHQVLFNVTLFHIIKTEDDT
Turning to Q181H, the “effect of a mutation on the interaction” value is given as “with no effect”.

Variants of B3 are the subject of another assay. As to conditions: with ub2e3_human UBE2E3, Q969T4.
Sequence of ub2e3_human UBE2E3, Q969T4 (Q969T4 whole entry): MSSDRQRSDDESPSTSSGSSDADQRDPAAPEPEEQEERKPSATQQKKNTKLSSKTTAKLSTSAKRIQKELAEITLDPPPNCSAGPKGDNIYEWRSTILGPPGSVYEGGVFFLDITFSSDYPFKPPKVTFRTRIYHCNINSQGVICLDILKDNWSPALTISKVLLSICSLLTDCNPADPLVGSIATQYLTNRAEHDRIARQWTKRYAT
For the variant A17T, the “effect of a mutation on the interaction” value is reported as “with no effect”.

In another assay the parent is B4. Conditions: with actn1_human ACTN1, P12814.
Sequence of actn1_human ACTN1, P12814 (P12814 whole entry): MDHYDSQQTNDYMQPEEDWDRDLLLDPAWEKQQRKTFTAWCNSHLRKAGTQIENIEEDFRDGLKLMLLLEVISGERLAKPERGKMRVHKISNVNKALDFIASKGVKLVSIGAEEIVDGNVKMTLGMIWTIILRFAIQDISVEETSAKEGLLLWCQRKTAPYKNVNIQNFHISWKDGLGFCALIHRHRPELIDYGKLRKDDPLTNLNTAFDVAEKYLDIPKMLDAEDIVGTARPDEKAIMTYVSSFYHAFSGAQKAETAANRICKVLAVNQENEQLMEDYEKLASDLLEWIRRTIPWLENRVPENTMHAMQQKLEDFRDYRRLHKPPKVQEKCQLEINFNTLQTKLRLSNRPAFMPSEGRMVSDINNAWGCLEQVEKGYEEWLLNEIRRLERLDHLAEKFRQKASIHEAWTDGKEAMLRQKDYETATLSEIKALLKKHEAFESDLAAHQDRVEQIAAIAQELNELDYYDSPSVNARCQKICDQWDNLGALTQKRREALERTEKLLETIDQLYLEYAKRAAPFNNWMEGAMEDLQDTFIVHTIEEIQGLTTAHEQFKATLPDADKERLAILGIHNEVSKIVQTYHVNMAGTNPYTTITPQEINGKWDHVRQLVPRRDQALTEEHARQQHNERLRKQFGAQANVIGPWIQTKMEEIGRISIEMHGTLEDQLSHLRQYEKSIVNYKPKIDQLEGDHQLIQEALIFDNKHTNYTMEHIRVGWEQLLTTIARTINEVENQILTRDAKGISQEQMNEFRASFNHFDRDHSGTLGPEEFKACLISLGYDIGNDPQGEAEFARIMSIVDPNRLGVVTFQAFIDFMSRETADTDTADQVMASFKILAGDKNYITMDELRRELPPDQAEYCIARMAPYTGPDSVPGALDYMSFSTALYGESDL
Take L327P: the “effect of a mutation on the interaction” value is “disrupting interaction strength”.

In the next assay the parent is B5. Conditions: with lce2d_human LCE2D.
Turning to A37T, the “effect of a mutation on the interaction” value is given as “with no effect”.
Same read-out and setting: with R296K the entry was “with no effect”.
